Measurements taken from article PMC6181919.
Each block holds one substance with its values, some of them ahead of it.

Tests used:
[1] = biological target: FLAG-tagged Ser1169Cys (S2C) C-Proα2(I) (human); experiment: non-reducing SDS-PAGE immunoblot; wild-type C-Proα1(I) and S2C C-Proα2(I) co-expressed at 1:1, 2:1 and 5:1; media depleted by HA immunoprecipitation, unbound fraction FLAG-immunoprecipitated, elutions on a non-reducing SDS-PAGE gel
[2] = biological target: FLAG-tagged Ser1169Cys (S2C) C-Proα2(I) (human); experiment: non-reducing SDS-PAGE immunoblot; conditioned media of transfected HEK293 cells, treated with 100 mM iodoacetamide, boiled in SDS, 12% gel, non-reducing; denaturing, shows disulfide-linked species only; two-colour detection of HA and FLAG
[3] = biological target: FLAG-tagged Ser1169Cys (S2C) C-Proα2(I) (human); experiment: co-IP; sequential: conditioned media of co-transfected HEK293 cells, anti-FLAG beads (C-Proα2(I)), FLAG peptide elution, then HA beads (C-Proα1(I)); non-reducing, washes with 50 mM EDTA to deplete Ca^2+, 4 °C; reducing SDS-PAGE immunoblot; ratio by quantified blots
[4] = biological target: purified S2C (Ser1169Cys) C-Proα2(I), His tag cleaved (human); experiment: AUC; sedimentation equilibrium, 25 °C, 20 mM Bis-Tris propane pH 7, 150 mM NaCl, without Ca^2+; equilibrium constants are of monomer to dimer
[5] = biological target: purified S2C (Ser1169Cys) C-Proα2(I), His tag cleaved (human); experiment: AUC; sedimentation equilibrium, 25 °C, 20 mM Bis-Tris propane pH 7, 150 mM NaCl, with 0.5 mM CaCl2; monomer to trimer
[6] = biological target: purified wild-type C-Proα2(I), His tag cleaved (human); experiment: AUC; sedimentation equilibrium, 25 °C, 20 mM Bis-Tris propane pH 7, 150 mM NaCl, without Ca^2+; equilibrium constants are of monomer to dimer
[7] = biological target: purified wild-type C-Proα2(I), His tag cleaved (human); experiment: AUC; sedimentation equilibrium, 25 °C, 20 mM Bis-Tris propane pH 7, 150 mM NaCl, with 0.5 mM CaCl2; monomer to trimer
[8] = biological target: wild-type, FLAG-tagged C-Proα2(I) (C-propeptide domain of human Colα2(I)) (human); experiment: co-IP; sequential: conditioned media of co-transfected HEK293 cells, anti-FLAG beads (C-Proα2(I)), FLAG peptide elution, then HA beads (C-Proα1(I)); non-reducing, washes with 50 mM EDTA to deplete Ca^2+, 4 °C; reducing SDS-PAGE immunoblot; ratio by quantified blots
[9] = biological target: wild-type, HA-tagged C-Proα1(III) (human); experiment: non-reducing SDS-PAGE immunoblot; conditioned media of transfected HEK293 cells, treated with 100 mM iodoacetamide, boiled in SDS, 12% gel, non-reducing; denaturing, shows disulfide-linked species only; two-colour detection of HA and FLAG

Sequence of wild-type, FLAG-tagged C-Proα2(I) (C-propeptide domain of human Colα2(I)) (human) (P08123 23-1366): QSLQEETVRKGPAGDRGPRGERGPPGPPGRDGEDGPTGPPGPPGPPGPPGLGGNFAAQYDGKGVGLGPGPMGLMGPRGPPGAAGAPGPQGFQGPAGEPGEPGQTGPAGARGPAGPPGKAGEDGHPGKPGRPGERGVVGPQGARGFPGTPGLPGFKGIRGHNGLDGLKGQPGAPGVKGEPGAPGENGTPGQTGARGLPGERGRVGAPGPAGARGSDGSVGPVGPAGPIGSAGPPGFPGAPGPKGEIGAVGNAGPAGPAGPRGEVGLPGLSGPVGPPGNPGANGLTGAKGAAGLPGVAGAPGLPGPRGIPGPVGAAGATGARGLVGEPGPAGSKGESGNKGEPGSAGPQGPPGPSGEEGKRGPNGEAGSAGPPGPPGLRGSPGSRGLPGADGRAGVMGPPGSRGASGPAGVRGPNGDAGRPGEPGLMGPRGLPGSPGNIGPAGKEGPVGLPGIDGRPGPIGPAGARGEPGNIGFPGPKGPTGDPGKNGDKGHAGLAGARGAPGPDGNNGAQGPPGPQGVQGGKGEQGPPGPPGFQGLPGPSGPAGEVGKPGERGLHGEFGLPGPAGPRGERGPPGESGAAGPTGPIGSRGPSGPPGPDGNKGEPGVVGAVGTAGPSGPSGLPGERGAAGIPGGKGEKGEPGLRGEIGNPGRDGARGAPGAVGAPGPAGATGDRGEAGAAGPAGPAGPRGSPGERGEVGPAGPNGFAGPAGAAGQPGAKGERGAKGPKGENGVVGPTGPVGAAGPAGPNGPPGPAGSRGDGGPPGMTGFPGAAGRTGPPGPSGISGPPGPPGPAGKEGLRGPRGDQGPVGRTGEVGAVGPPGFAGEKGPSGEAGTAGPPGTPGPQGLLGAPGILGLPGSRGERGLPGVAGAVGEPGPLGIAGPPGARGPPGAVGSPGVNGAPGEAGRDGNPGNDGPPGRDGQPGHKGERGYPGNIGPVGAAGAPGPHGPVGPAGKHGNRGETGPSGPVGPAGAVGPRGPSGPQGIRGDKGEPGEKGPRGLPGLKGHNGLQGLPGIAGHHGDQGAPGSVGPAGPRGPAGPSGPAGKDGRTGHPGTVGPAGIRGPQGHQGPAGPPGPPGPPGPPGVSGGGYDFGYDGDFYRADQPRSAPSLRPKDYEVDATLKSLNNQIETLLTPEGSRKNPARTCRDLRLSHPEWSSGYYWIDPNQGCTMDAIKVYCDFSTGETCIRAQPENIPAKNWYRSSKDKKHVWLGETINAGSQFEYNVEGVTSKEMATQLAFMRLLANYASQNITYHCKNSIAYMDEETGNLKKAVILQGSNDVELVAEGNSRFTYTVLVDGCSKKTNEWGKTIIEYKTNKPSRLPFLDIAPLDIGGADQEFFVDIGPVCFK

Substance: HA-tagged Cys1265Ser (C2S) C-Proα1(I) (from UniProt P02452 1219-1464) (domain or fragment)
stoichiometry N (C-Proα1(I):C-Proα2(I)) [3]: 0.5

Substance: purified S2C (Ser1169Cys) C-Proα2(I), His tag cleaved (domain or fragment)
stoichiometry N [4]: 3
stoichiometry N [5]: 3

Substance: wild-type, HA-tagged C-Proα1(III) (domain or fragment)
stoichiometry N [9]: 3

Continued, values first:

stoichiometry N [1]: 3
stoichiometry N [2]: 3
Substance: FLAG-tagged Ser1169Cys (S2C) C-Proα2(I) (domain or fragment)

Ka [6]: 6500 M⁻¹
stoichiometry N [6]: 2
stoichiometry N [7]: 3
Substance: purified wild-type C-Proα2(I), His tag cleaved (domain or fragment)

stoichiometry N (C-Proα1(I):C-Proα2(I)) [8]: 2
stoichiometry N (C-Proα1(I):C-Proα2(I)) [3]: 2
Substance: wild-type, HA-tagged C-Proα1(I) (C-propeptide domain of human Colα1(I)) (from UniProt P02452 1219-1464) (domain or fragment)
